One assay addresses human TLR4 ECD (human, UniProt O00206). Nature of the assay: SPR, TLR4 immobilized. For orientation: In SPR one partner is held on a chip, and binding of the other changes the refractive index at the surface.
The target of the next assay is human RAGE ECD (human, UniProt Q15109). Nature of the assay: SPR, RAGE immobilized.
human RAGE ECD, sequence (Q15109 1-344): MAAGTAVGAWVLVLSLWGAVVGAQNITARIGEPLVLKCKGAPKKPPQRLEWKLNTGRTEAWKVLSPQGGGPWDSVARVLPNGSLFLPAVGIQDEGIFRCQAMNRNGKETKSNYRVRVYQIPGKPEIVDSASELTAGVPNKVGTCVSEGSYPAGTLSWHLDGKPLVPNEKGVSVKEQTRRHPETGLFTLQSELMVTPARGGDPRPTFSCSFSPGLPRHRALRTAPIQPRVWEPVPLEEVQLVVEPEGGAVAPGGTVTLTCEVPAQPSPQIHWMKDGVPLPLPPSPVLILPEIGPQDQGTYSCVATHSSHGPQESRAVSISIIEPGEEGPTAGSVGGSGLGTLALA

human TLR4 ECD, sequence (O00206 1-631): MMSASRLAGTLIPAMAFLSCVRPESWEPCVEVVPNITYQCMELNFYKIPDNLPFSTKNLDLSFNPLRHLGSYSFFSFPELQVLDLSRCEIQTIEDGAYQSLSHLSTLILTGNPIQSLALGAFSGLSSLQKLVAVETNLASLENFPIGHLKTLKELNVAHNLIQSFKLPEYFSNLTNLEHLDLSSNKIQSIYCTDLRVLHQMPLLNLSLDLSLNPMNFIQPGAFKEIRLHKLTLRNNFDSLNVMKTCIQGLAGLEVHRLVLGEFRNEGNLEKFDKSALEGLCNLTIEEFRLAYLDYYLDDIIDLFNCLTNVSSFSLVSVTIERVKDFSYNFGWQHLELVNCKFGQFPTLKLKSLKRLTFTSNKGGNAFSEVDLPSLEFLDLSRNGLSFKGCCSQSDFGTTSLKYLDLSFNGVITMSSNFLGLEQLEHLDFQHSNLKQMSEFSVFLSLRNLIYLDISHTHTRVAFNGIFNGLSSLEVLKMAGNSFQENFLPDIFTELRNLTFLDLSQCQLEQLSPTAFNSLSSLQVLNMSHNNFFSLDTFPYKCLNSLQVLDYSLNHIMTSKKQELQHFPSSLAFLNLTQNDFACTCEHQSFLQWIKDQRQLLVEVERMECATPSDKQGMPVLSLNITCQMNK

B1: human pCTS-L (protein)
chain: ATLTFDHSLEAQWTKWKAMHNRLYGMNEEGWRRAVWEKNMKMIELHNQEYREGKHSFTMAMNAFGDMTSEEFRQVMNGFQNRKPRKGKVFQEPLFYEAPRSVDWREKGYVTPVKNQGQCGSCWAFSATGALEGQMFRKTGRLISLSEQNLVDCSGPQGNEGCNGGLMDYAFQYVQDNGGLDSEESYPYEATEESCKYNPKYSVANDTGFVDIPKQEKALMKAVATVGPISVAIDAGHESFLFYKEGIYFEPDCSSEDMDHGVLVVGYGFESTESDNNKYWLVKNSWGEEWGMGGYVKMAKDRRNHCGIASAASYPTV
As for B1, the dissociation constant (Kd) (as a rule, a measure of binding affinity in units of concentration) with human TLR4 ECD was 64.4 nM; in the assay with human RAGE ECD, 3 nM.

Source of the values: patent US20260347504 (published 2026).
